In patent US20110151450 one finds activity (fidelity index) data, which are given here for six substances.

Holding throughout (experiment): cleavage_in_vitro
The subject of series [1] is T1, BsmAI-HF N212A (Bacillus stearothermophilus).
T1 sequence: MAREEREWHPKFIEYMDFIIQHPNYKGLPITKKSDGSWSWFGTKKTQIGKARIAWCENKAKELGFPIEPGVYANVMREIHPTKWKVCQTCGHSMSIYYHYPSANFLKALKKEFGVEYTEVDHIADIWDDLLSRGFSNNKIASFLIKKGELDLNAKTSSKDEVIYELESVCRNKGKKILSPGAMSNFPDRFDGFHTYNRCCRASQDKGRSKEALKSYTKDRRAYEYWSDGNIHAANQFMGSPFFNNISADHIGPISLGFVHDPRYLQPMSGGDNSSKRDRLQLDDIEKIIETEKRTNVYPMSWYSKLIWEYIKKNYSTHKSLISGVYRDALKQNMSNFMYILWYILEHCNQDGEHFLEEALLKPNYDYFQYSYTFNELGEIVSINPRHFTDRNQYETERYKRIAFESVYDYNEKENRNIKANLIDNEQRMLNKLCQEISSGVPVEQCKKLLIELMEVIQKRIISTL
The conditions noted are these: NEB4, relative activity 100%.

The test system of series [2] is T2, BsmAI-WT (Bacillus stearothermophilus).
T2 sequence: T1 sequence with A212N
To be noted: NEB4, relative activity 100%.

In series [3] the test system is T3, BsmBI-HF W238A (Bacillus stearothermophilus).
T3 sequence: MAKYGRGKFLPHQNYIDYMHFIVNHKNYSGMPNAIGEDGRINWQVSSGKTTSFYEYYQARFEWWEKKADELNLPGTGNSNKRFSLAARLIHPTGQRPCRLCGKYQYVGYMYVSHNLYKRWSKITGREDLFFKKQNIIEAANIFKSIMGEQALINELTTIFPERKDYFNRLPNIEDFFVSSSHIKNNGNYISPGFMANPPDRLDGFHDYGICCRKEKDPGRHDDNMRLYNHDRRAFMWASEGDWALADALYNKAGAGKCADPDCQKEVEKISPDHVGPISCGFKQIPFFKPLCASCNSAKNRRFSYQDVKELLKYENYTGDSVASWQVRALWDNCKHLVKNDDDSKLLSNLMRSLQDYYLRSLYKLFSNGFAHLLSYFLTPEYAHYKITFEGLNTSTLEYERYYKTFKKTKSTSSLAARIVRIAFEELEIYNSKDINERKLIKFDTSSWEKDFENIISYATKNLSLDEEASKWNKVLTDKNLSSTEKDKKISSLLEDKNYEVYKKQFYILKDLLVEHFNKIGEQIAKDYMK
The conditions noted are these: NEB4, relative activity 100%.

In series [4] the test system is T4, BsmBI-WT (Bacillus stearothermophilus).
T4 sequence: T3 sequence with A238W
The conditions noted are these: NEB4, relative activity 25%.

Series [5] has as its system T5, BstXI-HF N65T (Bacillus stearothermophilus).
T5 sequence: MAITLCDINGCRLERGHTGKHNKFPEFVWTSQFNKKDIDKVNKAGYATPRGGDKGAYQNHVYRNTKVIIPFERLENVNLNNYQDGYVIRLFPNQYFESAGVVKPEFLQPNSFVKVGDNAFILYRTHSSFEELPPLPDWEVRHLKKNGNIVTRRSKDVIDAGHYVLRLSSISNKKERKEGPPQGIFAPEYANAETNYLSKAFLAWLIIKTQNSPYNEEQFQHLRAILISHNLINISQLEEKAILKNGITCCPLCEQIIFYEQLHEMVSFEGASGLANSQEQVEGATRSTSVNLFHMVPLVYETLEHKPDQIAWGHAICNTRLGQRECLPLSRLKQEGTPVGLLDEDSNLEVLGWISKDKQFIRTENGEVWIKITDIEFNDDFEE
To be noted: NEB4, relative activity 100%.

Series [6] has as its system T6, BstXI-WT (Bacillus stearothermophilus).
T6 sequence: T5 sequence with T65N
To be noted: NEB4, relative activity 100%.

The subject of series [7] is T7, DraIII-HF T181A (Deinococcus radiophilus).
T7 sequence: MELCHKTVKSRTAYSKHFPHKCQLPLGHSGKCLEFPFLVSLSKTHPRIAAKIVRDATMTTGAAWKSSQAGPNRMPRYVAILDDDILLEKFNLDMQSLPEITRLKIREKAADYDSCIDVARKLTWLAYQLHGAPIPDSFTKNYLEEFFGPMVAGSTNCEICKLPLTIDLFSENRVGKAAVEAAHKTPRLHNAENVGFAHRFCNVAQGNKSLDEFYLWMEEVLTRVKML
To be noted: NEB4, 37 C 1 h, relative activity 100%; Table 1 gives >=2000.

Series [8] has as its system T8, DraIII-WT (Deinococcus radiophilus).
T8 sequence: T7 sequence with A181T
The conditions noted are these: NEB4, 37 C 1 h, relative activity 50%.

In series [9] the target is T9, HindIII-WT (Haemophilus influenzae) (UniProt P43870).
T9 sequence: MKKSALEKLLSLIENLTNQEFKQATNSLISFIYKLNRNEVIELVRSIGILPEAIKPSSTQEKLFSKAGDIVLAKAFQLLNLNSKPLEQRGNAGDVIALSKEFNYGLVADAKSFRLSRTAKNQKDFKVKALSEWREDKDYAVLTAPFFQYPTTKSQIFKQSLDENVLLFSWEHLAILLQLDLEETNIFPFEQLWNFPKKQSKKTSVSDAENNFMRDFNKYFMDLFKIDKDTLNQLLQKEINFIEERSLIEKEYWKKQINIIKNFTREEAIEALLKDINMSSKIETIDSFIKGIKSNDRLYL
To be noted: NEB4, relative activity 50%.

For series [10], the target named is T10, SfiI-WT (Streptomyces fimbriatus) (UniProt O52512).
T10 sequence: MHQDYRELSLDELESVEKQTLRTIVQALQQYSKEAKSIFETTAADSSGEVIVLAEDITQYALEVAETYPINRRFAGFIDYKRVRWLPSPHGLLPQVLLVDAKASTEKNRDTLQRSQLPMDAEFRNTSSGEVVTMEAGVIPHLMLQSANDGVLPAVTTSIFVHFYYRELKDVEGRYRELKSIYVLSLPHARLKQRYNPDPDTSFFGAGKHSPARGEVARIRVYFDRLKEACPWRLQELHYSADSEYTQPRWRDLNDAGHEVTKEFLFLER
The conditions noted are these: NEB4, relative activity 25%.

Series [11] has as its system T11, PspGI-WT (Pyrococcus species).
T11 sequence: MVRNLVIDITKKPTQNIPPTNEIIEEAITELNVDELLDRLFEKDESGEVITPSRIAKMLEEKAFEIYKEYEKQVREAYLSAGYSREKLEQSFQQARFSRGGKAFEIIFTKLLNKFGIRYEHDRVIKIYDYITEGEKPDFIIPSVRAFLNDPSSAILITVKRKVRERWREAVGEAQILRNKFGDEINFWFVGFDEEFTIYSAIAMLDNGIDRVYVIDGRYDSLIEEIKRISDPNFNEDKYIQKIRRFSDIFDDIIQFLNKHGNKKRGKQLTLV
To be noted: NEB4, relative activity 100%.

For series [12], the target named is T12, SfiI-HF R114A (Streptomyces fimbriatus) (UniProt O52512).
T12 sequence: T10 sequence with R114A
To be noted: NEB4, relative activity 100%.

Series [13] relates to T13, PspGI-HF R75A (Pyrococcus species).
T13 sequence: T11 sequence with R75A
The conditions noted are these: NEB4, relative activity 100%.

Where a chain is given by its changes, count along the chain named.

In the case of FX174 DNA, the activity (fidelity index) was > 4000 in series [1] and 250 in series [2].
Regarding lambda DNA, BsmBI sites, the activity (fidelity index) was 250 in series [3] and 4 in [4].
For lambda DNA, BstXI sites, the results for the activity (fidelity index) in series [5] and in series [6] were > 1000 and 32, respectively.
In the case of lambda DNA, DraIII sites, the results for the activity (fidelity index) in [7] and in series [8] were > 64000 and 0.5, respectively.
Take lambda DNA, HindIII sites: the activity (fidelity index) in [9] is 32.
pBC4 plasmid: the activity (fidelity index) is 64 in series [10], 1 in [11], > 8000 in [12] and > 4000 in [13].
